T1: EBOV GP (recombinant, full-length extracellular domain) (EBOV (Ebola Zaire), UniProt Q05320 33-650)
T1 sequence: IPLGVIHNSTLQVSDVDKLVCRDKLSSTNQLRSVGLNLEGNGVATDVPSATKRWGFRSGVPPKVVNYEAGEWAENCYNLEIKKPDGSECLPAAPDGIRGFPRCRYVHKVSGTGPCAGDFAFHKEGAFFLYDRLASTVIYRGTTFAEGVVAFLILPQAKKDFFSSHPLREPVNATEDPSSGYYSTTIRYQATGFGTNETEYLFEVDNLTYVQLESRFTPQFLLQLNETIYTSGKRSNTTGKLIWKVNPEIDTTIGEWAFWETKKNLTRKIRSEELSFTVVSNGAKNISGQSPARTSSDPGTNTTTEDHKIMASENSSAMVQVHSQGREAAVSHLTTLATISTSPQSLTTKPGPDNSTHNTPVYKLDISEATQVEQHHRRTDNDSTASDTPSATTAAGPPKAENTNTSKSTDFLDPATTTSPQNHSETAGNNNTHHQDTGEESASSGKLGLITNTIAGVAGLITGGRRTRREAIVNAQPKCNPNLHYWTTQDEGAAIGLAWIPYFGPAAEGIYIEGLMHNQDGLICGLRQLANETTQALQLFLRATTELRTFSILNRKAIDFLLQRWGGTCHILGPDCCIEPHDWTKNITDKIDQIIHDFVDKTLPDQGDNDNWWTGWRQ

T2: SUDV GP (recombinant) (SUDV (Sudan ebolavirus), UniProt Q66814 33-650)
T2 sequence: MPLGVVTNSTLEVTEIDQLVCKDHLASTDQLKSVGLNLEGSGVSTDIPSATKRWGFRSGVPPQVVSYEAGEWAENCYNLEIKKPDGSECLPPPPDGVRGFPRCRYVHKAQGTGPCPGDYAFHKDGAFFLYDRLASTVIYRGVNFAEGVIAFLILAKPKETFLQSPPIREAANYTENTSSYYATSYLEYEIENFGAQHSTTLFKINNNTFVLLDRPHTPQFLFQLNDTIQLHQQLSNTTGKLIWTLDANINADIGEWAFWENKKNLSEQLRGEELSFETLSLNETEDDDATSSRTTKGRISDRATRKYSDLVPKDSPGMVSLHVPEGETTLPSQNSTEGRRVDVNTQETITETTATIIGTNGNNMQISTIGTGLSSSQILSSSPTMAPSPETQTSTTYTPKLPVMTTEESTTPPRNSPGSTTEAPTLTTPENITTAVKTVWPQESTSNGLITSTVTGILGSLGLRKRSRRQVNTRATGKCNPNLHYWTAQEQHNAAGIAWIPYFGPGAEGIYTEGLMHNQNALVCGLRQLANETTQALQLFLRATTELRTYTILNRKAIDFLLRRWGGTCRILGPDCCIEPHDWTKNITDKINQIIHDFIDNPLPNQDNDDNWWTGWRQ

T3: EBOV sGP (EBOV (Ebola Zaire), UniProt P60170 33-324)
T3 sequence: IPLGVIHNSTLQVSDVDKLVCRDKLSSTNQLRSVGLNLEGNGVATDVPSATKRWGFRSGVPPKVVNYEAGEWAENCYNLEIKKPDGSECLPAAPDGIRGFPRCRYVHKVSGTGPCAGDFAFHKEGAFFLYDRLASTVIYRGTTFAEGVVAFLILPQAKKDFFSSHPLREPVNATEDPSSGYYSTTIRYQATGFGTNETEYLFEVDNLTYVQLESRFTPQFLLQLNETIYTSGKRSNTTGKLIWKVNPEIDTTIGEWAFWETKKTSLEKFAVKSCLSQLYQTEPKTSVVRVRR

B1: EBOV62 (antibody, V domains shown)
VH: EVQLVESGGGLVQPGGSLRLSCAASGFTFSSYWMSWVRQAPGKGLEWVANIKQDGSAKYYVDSVKGRFTISRDNAKNSLYLQMNSLRAEDTAVYYCARDGLLGISDLLYPIYYFDYWGQGTLVTVSS
VL: DIVMTQSPSSLSASVGDRVTITCRASQNIGSYLNWYQQKPGKAPNLLMYAASSLQSGVPSRFSGSGSGTDFTLTITSLQPEDFATYYCQQSYSIPRTFGQGTQLEIK
B2: EBOV49 (antibody, V domains shown)
VH: EVQLVESGGGLVQPGGSLRLSCAASGFTFSSYEINWVRQAPGRGLEWVSYISSSGRTIYYADSVKGRFTISRDNAKNSLYLQMNSLRAEDTAVYYCAREPYVDGILYGAGDSYFDYWGQGTLVTVSS
VL: DIQMTQSPSSLSASVGDRVTITCRASQSISNYLNWYQQKPGKAPKVLIYAASSLQSGVSSRFSGSGSGTDFTLTISSLQPEDFATYFCQQSYNTPPVTFGQGTRLEIK
B3: EBOV87 (antibody, V domains shown)
VH: QVQLVQSGAEVKRPGASVKVSCKASGYTFTSYAISWVRQAPGQGLEWMGWISGNNGNTNYAQKLQGRLTMTTDTSTSTAYMELRSLRSDDTAVYYCARDADIVVVVGATGTYYYGMDVWGQGTLVTVSS
VL: DIVMTQSPSTLSASVGDRVTITCRASQSISSWLAWYQQKPGKAPKLLIYDASSLESGVPSRFSGSGSGTEFTLTISSLQPDDFATYYCQQYKSSLRTFGQGTQLEIK
B4: EBOV63 (antibody, V domains shown)
VH: EVQLVESGGGLVKPGGSLRLSCAASGFTLNFYNMNWVRQAPGKGLEWVSSISSSSNYIYYADSVKGRFTISRDNARKSLYLQMNSLRAEDTAVYYCARDFVQLLIPQRDEWQGVHDYYGMDVWGQGTLVTVSS
VL: EIVLTQSPGTLSLSPGGRATLSCRASQSVSNSYLAWYQQKPGQAPRLLIYGASSRATGIPDRFSGSGSGTDFILTISRLEPEDFAVYYCQHYGSSQLTFGGGTKVEIK
B5: EBOV52 (antibody, V domains shown)
VH: QVQLQESGPGLVKPSETLSLNCTVSGGSISSYYWSWIRQPPGKGLEWIGYIYDSGRTKYNPSLKSRVTISLDTSKNQFSLKLSSVTAADTAVYYCASLGPFDKLWFGELLPGWFDPWGQGTLVTVSS
VL: EIVLTQSPATLSLSPGGRATLSCRASQSVHNYLAWYQQKSGQAPRLLIYDASNRATGIPARFSGSGSGTDFTLTISSLEPDDFAVYYCQHRSNWLTFGGGTKVEIK

Target: T1, EBOV GP (recombinant, full-length …)
Assay: ELISA, GP coated on plate, mAb serially diluted

B1 and B2 are within 1.5-fold of each other in EC50: 228 µg/mL for the first, 262 µg/mL for the second.

First: B3
Second: B4
The EC50 of the first is 2.6-fold higher: 724 µg/mL for the first, 283 µg/mL for the second.

Work on B5 yielded an EC50 of 712 µg/mL.

Target: T2, SUDV GP (recombinant)
Assay: ELISA, GP coated on plate, mAb serially diluted

With B3 the EC50 was 629 µg/mL.

Target: T3, EBOV sGP
Assay: ELISA, sGP coated on plate, mAb serially diluted

B1 and B2 are within 1.5-fold of each other in EC50: 51 µg/mL for the first, 61 µg/mL for the second.

B3 and B4 are within 1.5-fold of each other in EC50: 51 µg/mL for the first, 38 µg/mL for the second.

For B5, the EC50 was 82 µg/mL.

From US20200200749A1 (VANDERBILT UNIVERSITY, published 2020)
